{"source": "paper PMC6278290", "about": "“Biochemical and Functional Characterization of Anthocyanidin Reductase (ANR) from Mangifera indica L” (Molecules, 2018)", "key": {"[1]": {"substrate": "NC(=O)C1=CN([C@@H]2O[C@H](COP(=O)(O)OP(=O)(O)OC[C@H]3O[C@@H](n4cnc5c(N)ncnc54)[C@H](OP(=O)(O)O)[C@@H]3O)[C@@H](O)[C@H]2O)C=CC1", "test": "purified protein", "assay_type": "biochemical, Mangifera indica", "conditions": "100 μM cyanidin, 100 mM citrate buffer pH 4.0, 30 °C, 20 min, substrate inhibition at 1.25-3.75 mM, varied: cofactor"}, "[2]": {"substrate": "Oc1cc(O)c2cc(O)c(-c3ccc(O)c(O)c3)[o+]c2c1", "test": "purified protein", "assay_type": "biochemical, Mangifera indica", "conditions": "1 mM NADPH, 20 min"}, "[3]": {"conditions": "100 mM citrate buffer pH 4.0, 30 °C"}, "[4]": {"conditions": "100 mM phosphate buffer pH 3.0, 30 °C"}}}
{"protein": "MiANR1-3 (Mangifera indica; S2A) (protein, S2A from the NcoI site; C-terminal His6 tag (pET28b), E. coli BL21(DE3) pLysS, Ni-NTA purified; about 37 kDa on SDS-PAGE) MAAQQTAKNTACVVGGTGFVASLLIKLLLQKGYSVSTTVRDPDNQQKISHLLSLQELGELKIFGADLTDEGSFDAPIAGSDIVFHVATPVNFASEDPENDMIKPAIQGVENVLKACAKAKTVKRVILTSSAAAVTINNQDGTGLVMDEKHWTDVEFLSSAKPPTWGYPVSKTLAERHAWKFAQENNIDLITIIPSLMAGPSLTPDIPSSLNLAMSLISGNEFLTNALKGMQMLSGSISIAHVEDVCRAHIFLAEKESASGRYICCAVNTSVPELAKFLHQRYPQYKVPTDFGDFPSKPKLLISSGKLISEGFSFKFGIEEIYDQTVEYFKAKGVL", "values": [{"measurement": "Km", "setting": "[1]", "value": "18.98 ± 1.18", "unit": "µM"}, {"measurement": "Vmax", "setting": "[1]", "value": 0.019, "unit": "µmol/min/mg"}, {"measurement": "Km", "setting": "[2]; [3]", "value": "80.43 ± 5.85", "unit": "µM"}, {"measurement": "kcat/Km", "setting": "[2]; [3]", "value": 401000, "unit": "M⁻¹ s⁻¹"}]}
{"protein": "MiANR1-1 (Mangifera indica; S2A) (protein, S2A from the NcoI site; C-terminal His6 tag (pET28b), E. coli BL21(DE3) pLysS, Ni-NTA purified; about 37 kDa on SDS-PAGE) MAAQQTAKNTACVVGGTGFVASLLIKLLLQKGYSVSTTVRDPGNQKKISHLLSLQELGELKIFGADLTDEGSFDAPIAGSDIVFHVATPVNFASEDPENDMIKPAIQGVGNVLKACAKAKTVKRVILTSSAAAVTINNQDGTGLVMDEKHWTDVEFLSSAKPPTWGYPASKTLAERHAWKFAQDNNIDLITIIPSLMAGPSLTPDIPSSLNLAMSLISGNEFLTNALKGMQMLSGSISIAHVEDVCRAHIFLAEKESASGRYICCAVNTSVPELAKFLQQRYPQYKVPTDFGDFPSKPKLLISSEKLISEGFSFKFGIEEIYDQTVEYFKAKGVL", "values": [{"measurement": "Km", "setting": "[2]; [4]", "value": "48.32 ± 3.45", "unit": "µM"}, {"measurement": "kcat/Km", "setting": "[2]; [4]", "value": 330000, "unit": "M⁻¹ s⁻¹"}]}
{"protein": "MiANR1-2 (Mangifera indica; S2A) (protein, S2A from the NcoI site; C-terminal His6 tag (pET28b), E. coli BL21(DE3) pLysS, Ni-NTA purified; about 37 kDa on SDS-PAGE) MAAQQTAKNTACVVGGTGFVASLLIKLLLQKGYSVSTTVRDPDNQQKISHLLSLQELGELKIFGADLTDEGSFDAPIAGSDIVFHVATPVNFASEDPENDMIKPAIQGVENVLKACAKAKTVKRVILTSSAAAVTINNQDGTGLVMDEKHWTDVEFLSSAKPPTWGYPASKTLAERHAWKFAQENNIDLITIIPSLMAGPSLTPDIPSSLNLAMSLISGNEFLTNALKGMQMLSGSISIAHVEDVCRAHIFLAEKESASGRYICCAVNTSVPELAKFLQQRYPQYKVPTDFGDFPSKPKLLISSEKLISEGFSFKFGIEEIYDQTVEYFKAKGVL", "values": [{"measurement": "Km", "setting": "[1]", "value": "18.14 ± 1.4", "unit": "µM"}, {"measurement": "Vmax", "setting": "[1]", "value": 0.0227, "unit": "µmol/min/mg"}, {"measurement": "Km", "setting": "[2]; [3]", "value": "116.4 ± 4.42", "unit": "µM"}, {"measurement": "kcat/Km", "setting": "[2]; [3]", "value": 363000, "unit": "M⁻¹ s⁻¹"}]}
